Results taken from patent US20210208163A1.

Biological target: recombinant mouse integrin αvβ3 (R&D Systems, 7889-AV-050) (mouse) (UniProt P43406)
Test: SPR, mutant ICOSL immobilised, αvβ3 as analyte, 0.2 mM Ca2+ and 0.1 mM Mg2+, steady-state affinity fit

Sequence of recombinant mouse integrin αvβ3 (R&D Systems, 7889-AV-050) (mouse) (P43406 31-988 limits assumed, chain 1 of 2): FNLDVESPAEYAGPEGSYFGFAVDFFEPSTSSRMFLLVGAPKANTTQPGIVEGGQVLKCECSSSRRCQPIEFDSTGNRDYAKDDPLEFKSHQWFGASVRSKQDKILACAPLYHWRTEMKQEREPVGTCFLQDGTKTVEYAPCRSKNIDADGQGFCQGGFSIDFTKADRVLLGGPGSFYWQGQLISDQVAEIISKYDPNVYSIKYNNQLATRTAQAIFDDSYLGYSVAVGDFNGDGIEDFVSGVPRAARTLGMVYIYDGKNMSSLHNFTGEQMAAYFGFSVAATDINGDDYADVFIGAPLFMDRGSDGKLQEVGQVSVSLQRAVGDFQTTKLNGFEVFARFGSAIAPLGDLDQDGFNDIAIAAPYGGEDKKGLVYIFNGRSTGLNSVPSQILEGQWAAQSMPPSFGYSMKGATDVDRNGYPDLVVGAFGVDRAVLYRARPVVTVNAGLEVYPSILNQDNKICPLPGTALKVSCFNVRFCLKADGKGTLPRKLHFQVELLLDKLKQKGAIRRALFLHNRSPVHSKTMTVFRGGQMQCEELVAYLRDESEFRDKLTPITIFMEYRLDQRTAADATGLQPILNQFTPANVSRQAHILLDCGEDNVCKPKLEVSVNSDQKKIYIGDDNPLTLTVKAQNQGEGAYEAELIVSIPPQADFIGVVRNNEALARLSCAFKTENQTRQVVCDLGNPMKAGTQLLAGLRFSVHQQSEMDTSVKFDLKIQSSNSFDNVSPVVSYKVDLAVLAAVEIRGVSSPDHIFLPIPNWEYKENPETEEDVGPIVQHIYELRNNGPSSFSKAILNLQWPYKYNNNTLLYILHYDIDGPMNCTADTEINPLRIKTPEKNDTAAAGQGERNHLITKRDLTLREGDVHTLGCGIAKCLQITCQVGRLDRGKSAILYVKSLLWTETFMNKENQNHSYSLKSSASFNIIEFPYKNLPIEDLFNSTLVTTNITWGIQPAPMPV
Sequence of recombinant mouse integrin αvβ3 (R&D Systems, 7889-AV-050) (mouse) (O54890 26-717 limits assumed, chain 2 of 2, further chain): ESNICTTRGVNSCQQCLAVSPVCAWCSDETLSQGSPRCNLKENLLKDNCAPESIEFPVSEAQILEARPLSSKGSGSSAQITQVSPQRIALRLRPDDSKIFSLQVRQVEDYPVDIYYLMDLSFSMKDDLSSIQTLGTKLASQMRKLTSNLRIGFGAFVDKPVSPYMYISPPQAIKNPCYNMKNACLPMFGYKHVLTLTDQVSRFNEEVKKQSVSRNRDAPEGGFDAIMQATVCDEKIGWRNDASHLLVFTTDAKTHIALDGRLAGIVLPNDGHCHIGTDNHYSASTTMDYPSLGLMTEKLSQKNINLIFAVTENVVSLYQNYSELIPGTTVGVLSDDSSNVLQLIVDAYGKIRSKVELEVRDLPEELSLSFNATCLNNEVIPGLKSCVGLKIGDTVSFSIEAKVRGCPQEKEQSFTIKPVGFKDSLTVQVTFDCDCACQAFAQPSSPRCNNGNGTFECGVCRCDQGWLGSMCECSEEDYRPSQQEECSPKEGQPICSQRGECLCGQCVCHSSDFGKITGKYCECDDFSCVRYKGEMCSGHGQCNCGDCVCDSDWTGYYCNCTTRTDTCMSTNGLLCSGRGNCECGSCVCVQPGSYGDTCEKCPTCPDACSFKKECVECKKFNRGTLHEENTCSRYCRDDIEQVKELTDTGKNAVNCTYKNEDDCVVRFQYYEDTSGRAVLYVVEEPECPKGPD

- Kd: 830 µM
Substance: RGD-mutated mouse ICOSL protein (RGD motif replaced with AAA) (from UniProt Q9JHJ8 44-322) (ligand)
